Reference: patent US20260069689A1 (Regeneron, published 2026)
Where a chain is given by its changes, count along the chain named.

B1: mAb14235 (antibody)
heavy: not shown
light: QSALTQPASVSGSPGQSITISCTATSSDVGTYNYVSWFQHHPGKAPKLMIYEVTNRPSGVSNRFSGSKSGNTASLTISGLQAEDEADYYCSSYTTTSIVFGGGTKLTVLGQPKAAPSVTLFPPSSEELQANKATLVCLISDFYPGAVTVAWKADSSPVKAGVETTTPSKQSNNKYAASSYLSLTPEQWKSHRSYSCQVTHEGSTVEKTVAPTECS
B2: mAb14284 (antibody)
heavy: not shown
light: B1 light with A24G, V29L, T31V, Y32F, F38Y, H40Q, T96S, I98T
notes: also called REGN14284
B3: mAb14294 (antibody)
heavy: not shown
light: EIVLTQSPGTLSLSPGERATLSCRASQSVSSSQLAWYQQKPGQAPRLLIYGASSRATGIPDRFSGSGSGTDFTLTISRLEPEDFAVYYCQQYDSFGQGTKLEIKRTVAAPSVFIFPPSDEQLKSGTASVVCLLNNFYPREAKVQWKVDNALQSGNSQESVTEQDSKDSTYSLSSTLTLSKADYEKHKVYACEVTHQGLSSPVTKSFNRGEC
B4: mAb14283 (antibody)
heavy: not shown
light: QSALTQPASVSGSPGQSTTISCTGTSSDVGGYNYVSWYQQYPGKAPKLMIYDVTNRPSGVSHRFSGSKSGNTASLTISGLQAEDEADYYCSSYTSSSTVIFGGGTKLTVLGQPKAAPSVTLFPPSSEELQANKATLVCLISDFYPGAVTVAWKADSSPVKAGVETTTPSKQSNNKYAASSYLSLTPEQWKSHRSYSCQVTHEGSTVEKTVAPTECS
B5: mAb14286 (antibody)
heavy: not shown
light: B4 light with S13Y, T18I, Y41H, Y51F, T54S, H62N, I77F, V99L, I100V
B6: mAb14247 (antibody)
heavy: not shown
light: QSALTQPASVSGSPGQSITISCTATSSDVGNYNYVSWYQQHPGKAPKLMIYEVSNRPSGVSNRFSGSKSGNTASLTISGLQAEDEADYYCSSYTSSSTPLVFGGGTKLTVLGQPKAAPSVTLFPPSSEELQANKATLVCLISDFYPGAVTVAWKADSSPVKAGVETTTPSKQSNNKYAASSYLSLTPEQWKSHRSYSCQVTHEGSTVEKTVAPTECS
B7: mAb14280 (antibody)
heavy: not shown
light: QSALTQPPSASGSPGQSVTISCTGTSSDVGGYNFVSWYQQHPGKAPKLMIYEVSKRPSGVPDRFSGSKSGNTASLTVSGLQAEDEADYYCSSYAGSNNFVFGTGTKVTVLGQPKAAPSVTLFPPSSEELQANKATLVCLISDFYPGAVTVAWKADSSPVKAGVETTTPSKQSNNKYAASSYLSLTPEQWKSHRSYSCQVTHEGSTVEKTVAPTECS
B8: mAb14234 (antibody)
heavy: not shown
light: QSVLTQPPSVSGAPGQRVTISCTGSSSNIGIGYDVHWYQQLPGTVPKLLIYGNTNRPSGVPDRFSGSKSGTSASLAITGLQAEDEADYYCQSYDSSLSSYVFGTGTKVTVLGQPKAAPSVTLFPPSSEELQANKATLVCLISDFYPGAVTVAWKADSSPVKAGVETTTPSKQSNNKYAASSYLSLTPEQWKSHRSYSCQVTHEGSTVEKTVAPTECS
B9: mAb14230 (antibody)
heavy: not shown
light: EIVLTQSPGTLSLSPGERATLSCRASQTVISTYLAWYQQKPGQSPRLLIYGASSRATGIPDRFSGSGSGTDFTLTISRLEPEDFAVYYCQQYGSSPQLTFGGGTKVEIKRTVAAPSVFIFPPSDEQLKSGTASVVCLLNNFYPREAKVQWKVDNALQSGNSQESVTEQDSKDSTYSLSSTLTLSKADYEKHKVYACEVTHQGLSSPVTKSFNRGEC
B10: mAb14312 (antibody)
heavy: not shown
light: QSVLTQPPSVSGAPGQRVTISCTGSSSNIGAGDDVHWYQQLPGTAPKLLIYGNSNRPSGVPDRFSGSKSGTSASLAITGLQAEDEADYYCQSYDSSLSGSVVFGGGTKLTVLGQPKAAPSVTLFPPSSEELQANKATLVCLISDFYPGAVTVAWKADSSPVKAGVETTTPSKQSNNKYAASSYLSLTPEQWKSHRSYSCQVTHEGSTVEKTVAPTECS
B11: mAb14289 (antibody)
heavy: not shown
light: EIVLTQSPGTLSLSPGERATLSCRASQSVSSYLAWYQQKPGQAPRLLIHGASSRATGIPDRFSGSGSGTDFTLTISRLEPEDFAVYYCQQYGSSFLTFGGGTKVEIKRTVAAPSVFIFPPSDEQLKSGTASVVCLLNNFYPREAKVQWKVDNALQSGNSQESVTEQDSKDSTYSLSSTLTLSKADYEKHKVYACEVTHQGLSSPVTKSFNRGEC
B12: mAb14281 (antibody)
heavy: not shown
light: SSELTQDPAVSVALGQTVRITCQGDSLRSYYASWYQQKPGQAPVLVIYDKNNRPSGIPDRFSGSSSGNTASLTITGAQAEDEADYYCNSRDSSRNHLVVFGGGTKLTVLGQPKAAPSVTLFPPSSEELQANKATLVCLISDFYPGAVTVAWKADSSPVKAGVETTTPSKQSNNKYAASSYLSLTPEQWKSHRSYSCQVTHEGSTVEKTVAPTECS
B13: mAb13458 (antibody)
heavy: not shown
light: AIQMTQSPSSLSASVGDRVTITCRASQDIRNDLGWYQQKPGKAPKLLIYSASSLQTGVPSRFSGSGSGTDFTLTISSLHPEDFATYYCLQDYWYTWTFGQGTKVEIKRTVAAPSVFIFPPSDEQLKSGTASVVCLLNNFYPREAKVQWKVDNALQSGNSQESVTEQDSKDSTYSLSSTLTLSKADYEKHKVYACEVTHQGLSSPVTKSFNRGEC
B14: mAb14282 (antibody)
heavy: not shown
light: QSALTQPASVSGSPGQSITISCTGTSSDVGSYNLVSWYQQHPGKAPKLMIYELTKRPSGVSNRFSGSKSGNTASLTISGLQAEDEADYYCSSYRGSVTDVVFGGGTKLTVLGQPKAAPSVTLFPPSSEELQANKATLVCLISDFYPGAVTVAWKADSSPVKAGVETTTPSKQSNNKYAASSYLSLTPEQWKSHRSYSCQVTHEGSTVEKTVAPTECS

Legend:
[1] = biological target: human FcγR3a 176Val allotype receptor (human, UniProt P08637 17-254); assay: cell-based or functional assay
[2] = biological target: SARS-COV-2 RBD-MMH (SARS-CoV-2); assay: SPR 37C, run with dissociation at pH 5.0
[3] = biological target: SARS-COV-2 RBD-MMH (SARS-CoV-2); assay: SPR 37C, run with dissociation at pH 7.4
[4] = biological target: SARS-COV-2 RBD-MMH (SARS-CoV-2); assay: SPR 37C

Binder | EC50 (M), Jurkat/CD20/spike [1] | Fold induction, Jurkat CD20 [1] | Fold induction, Jurkat/CD20/spike [1] | RBD.mmh Bound at pH 7.4 (RU) [2] | koff [2] | t½ [2] | RBD.mmh Bound at pH 7.4 (RU) [3] | koff [3] | t½ Ratio of pH 7.4 to pH 5.0 [4] | EC50 (M), Jurkat CD20 [1]
B1 | 1.43e-10 M | 1 fold | 10.8 fold | 80.8 RU | 0.00119 s⁻¹ | 9.7 min | 71.2 RU | 0.00148 s⁻¹ | 0.8 | –
B2 | 1.56e-10 M | 1.1 fold | 9 fold | 159 RU | 0.000736 s⁻¹ | 15.7 min | 147 RU | 0.000624 s⁻¹ | 1.2 | –
B3 | 6.04e-11 M | 1 fold | 10.5 fold | 97.6 RU | 0.000452 s⁻¹ | 25.5 min | 83.2 RU | 0.00092 s⁻¹ | 0.5 | –
B4 | 1.39e-10 M | 1.1 fold | 9.1 fold | 91.7 RU | 0.00512 s⁻¹ | 2.3 min | 87.7 RU | 0.00169 s⁻¹ | 3 | –
B5 | 2.04e-10 M | 1 fold | 11 fold | 82.4 RU | 0.00664 s⁻¹ | 1.7 min | 84.3 RU | 0.00968 s⁻¹ | 0.7 | –
B6 | 1.79e-10 M | 1 fold | 11.3 fold | 51.9 RU | 0.00191 s⁻¹ | 6.1 min | 40.8 RU | 0.00158 s⁻¹ | 1.2 | –
B7 | 2.67e-10 M | 1.1 fold | 13.5 fold | 61.7 RU | 0.0103 s⁻¹ | 1.1 min | 72.4 RU | 0.024 s⁻¹ | 0.5 | –
B8 | 2.69e-10 M | 1.1 fold | 12.6 fold | 40.4 RU | 0.00166 s⁻¹ | 7 min | 37.9 RU | 0.00221 s⁻¹ | 0.7 | –
B9 | 1.79e-10 M | 1.1 fold | 9.8 fold | 60.3 RU | 0.00924 s⁻¹ | 1.3 min | 67.6 RU | 0.00771 s⁻¹ | 1.2 | –
B10 | 1.68e-10 M | 2 fold | 7.5 fold | 96.7 RU | 0.00558 s⁻¹ | 2.1 min | 95.2 RU | 0.000859 s⁻¹ | 6.4 | 1.84e-08 M
B11 | 1.3e-10 M | 1 fold | 6.3 fold | 89.3 RU | 0.0046 s⁻¹ | 2.5 min | 86.1 RU | 0.00185 s⁻¹ | 2.5 | –
B12 | 1.65e-10 M | 1.1 fold | 10.3 fold | 51.7 RU | 0.0117 s⁻¹ | 1 min | 83.5 RU | 0.00659 s⁻¹ | 1.8 | –
B13 | 1.43e-10 M | 1.2 fold | 10.2 fold | 90.9 RU | 0.00401 s⁻¹ | 2.9 min | 96.5 RU | 0.00161 s⁻¹ | 2.5 | –
B14 | 2.57e-10 M | 1.1 fold | 10.7 fold | 62.4 RU | 0.00671 s⁻¹ | 1.7 min | 73.5 RU | 0.0126 s⁻¹ | 0.5 | –
